In paper PMC10397247 one finds interaction score data, which are given here for three molecules.

Assay [1] deals with T1, P9bHq.
T1 chain: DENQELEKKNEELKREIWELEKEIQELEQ
Description: two-hybrid library CCNG1.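 Also: natural log of median RNA to DNA barcode read ratio; higher means stronger binding.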

Assay [2] deals with T2, P8bHq.
T2 chain: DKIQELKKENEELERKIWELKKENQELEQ
Description: two-hybrid library CCNG1.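 Also: natural log of median RNA to DNA barcode read ratio; higher means stronger binding.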

The target of assay [3] is T3, P6bHq.
T3 chain: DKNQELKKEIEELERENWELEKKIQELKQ
Description: two-hybrid library CCNG1.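 Also: natural log of median RNA to DNA barcode read ratio; higher means stronger binding.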

Assay [4] addresses T4, P7bHq.
T4 chain: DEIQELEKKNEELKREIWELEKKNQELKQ
Description: two-hybrid library CCNG1.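 Also: natural log of median RNA to DNA barcode read ratio; higher means stronger binding.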

In assay [5] the target is T5, 4H570-bA.
T5 chain: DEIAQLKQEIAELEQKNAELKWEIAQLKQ
Description: two-hybrid library CCNG1.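 Also: natural log of median RNA to DNA barcode read ratio; higher means stronger binding.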

The target of assay [6] is T6, 4H619-bA.
T6 chain: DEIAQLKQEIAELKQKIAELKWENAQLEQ
Description: two-hybrid library CCNG1.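 Also: natural log of median RNA to DNA barcode read ratio; higher means stronger binding.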

The target in assay [7] is T7, 4H906-bA.
T7 chain: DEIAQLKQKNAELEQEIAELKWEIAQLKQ
Description: two-hybrid library CCNG1.

Assay [8] addresses T8, 4H850-bA.
T8 chain: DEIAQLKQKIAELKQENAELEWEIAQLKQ
Description: two-hybrid library CCNG1.

In assay [9] the target is T9, 4H3817-bA.
T9 chain: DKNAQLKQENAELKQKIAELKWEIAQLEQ
Description: two-hybrid library CCNG1.

For assay [10], the target named is T10, 4H584-bA.
T10 chain: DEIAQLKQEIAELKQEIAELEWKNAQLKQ
Description: two-hybrid library CCNG1.

Assay [11] deals with T11, 4H3631-bA.
T11 chain: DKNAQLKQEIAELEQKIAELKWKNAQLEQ
Description: two-hybrid library CCNG1.

The target of assay [12] is T12, 4H3172-bA.
T12 chain: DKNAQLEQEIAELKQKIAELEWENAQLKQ
Description: two-hybrid library CCNG1.

Assay [13] concerns the target T13, 4H3638-bA.
T13 chain: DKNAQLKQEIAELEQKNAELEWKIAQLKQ
Description: two-hybrid library CCNG1.

In assay [14] the target is T14, 4H3974-bA.
T14 chain: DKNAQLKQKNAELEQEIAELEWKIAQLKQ
Description: two-hybrid library CCNG1.

Assay [15] deals with T15, 4H3414-bA.
T15 chain: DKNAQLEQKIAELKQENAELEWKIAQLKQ
Description: two-hybrid library CCNG1.

For assay [16], the target named is T16, 4H384-AA.
T16 chain: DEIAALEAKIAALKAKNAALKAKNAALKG
Description: two-hybrid library CCmax. To be noted: mean of both orientations.

The target of assay [17] is T17, 4H697-AA.
T17 chain: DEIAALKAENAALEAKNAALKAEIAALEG
Description: two-hybrid library CCmax. Particulars: mean of both orientations.

Assay [18] concerns the target T18, 4H340-AA.
T18 chain: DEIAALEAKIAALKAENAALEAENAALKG
Description: two-hybrid library CCmax. Particulars: mean of both orientations.

Assay [19] has as its target T19, 4H2198-AA.
T19 chain: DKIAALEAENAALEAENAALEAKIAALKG
Description: two-hybrid library CCmax. Particulars: mean of both orientations.

The target in assay [20] is T20, 4H3378-AA.
T20 chain: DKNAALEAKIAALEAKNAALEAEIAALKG
Description: two-hybrid library CCmax. Particulars: mean of both orientations.

For assay [21], the target named is T21, 4H3588-AA.
T21 chain: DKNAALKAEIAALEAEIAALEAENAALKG
Description: two-hybrid library CCmax. To be noted: mean of both orientations.

The target of assay [22] is T22, 4H3718-AA.
T22 chain: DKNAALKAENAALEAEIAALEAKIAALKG
Description: two-hybrid library CCmax. Particulars: mean of both orientations.

The target in assay [23] is T23, 4H2620-AA.
T23 chain: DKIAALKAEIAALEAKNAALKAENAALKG
Description: two-hybrid library CCmax. To be noted: mean of both orientations.

Assay [24] concerns the target T24, 4H1874-AA.
T24 chain: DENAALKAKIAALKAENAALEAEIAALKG
Description: two-hybrid library CCmax. Particulars: mean of both orientations.

The target of assay [25] is T25, 4H3631-AA.
T25 chain: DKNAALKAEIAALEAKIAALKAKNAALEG
Description: two-hybrid library CCmax. To be noted: mean of both orientations.

Assay [26] has as its target T26, 4H3162-AA.
T26 chain: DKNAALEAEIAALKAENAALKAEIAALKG
Description: two-hybrid library CCmax. To be noted: mean of both orientations.

The target in assay [27] is T27, 4H3413-AA.
T27 chain: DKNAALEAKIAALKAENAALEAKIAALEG
Description: two-hybrid library CCmax. To be noted: mean of both orientations.

In assay [28] the target is T28, 4H1845-AA.
T28 chain: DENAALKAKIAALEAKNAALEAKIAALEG
Description: two-hybrid library CCmax. To be noted: mean of both orientations.

The target in assay [29] is T29, 4H3133-AA.
T29 chain: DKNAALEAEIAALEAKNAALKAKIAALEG
Description: two-hybrid library CCmax. Particulars: mean of both orientations.

Assay [30] has as its target T30, 4H3865-AA.
T30 chain: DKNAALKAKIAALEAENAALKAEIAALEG
Description: two-hybrid library CCmax. Particulars: mean of both orientations.

The target in assay [31] is T31, 4H3606-AA.
T31 chain: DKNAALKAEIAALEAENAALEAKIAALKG
Description: two-hybrid library CCmax. Particulars: mean of both orientations.

The target of assay [32] is T32, 4H2648-AA.
T32 chain: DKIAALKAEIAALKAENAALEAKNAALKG
Description: two-hybrid library CCmax. To be noted: mean of both orientations.

Assay [33] deals with T33, 4H1629-AA.
T33 chain: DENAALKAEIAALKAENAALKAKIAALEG
Description: two-hybrid library CCmax.

The target of assay [34] is T34, 4H3697-AA.
T34 chain: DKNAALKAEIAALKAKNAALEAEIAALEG
Description: two-hybrid library CCmax. Particulars: mean of both orientations.

Assay [35] deals with T35, 4H2611-AA.
T35 chain: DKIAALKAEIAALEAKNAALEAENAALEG
Description: two-hybrid library CCmax. To be noted: mean of both orientations.

Assay [36] concerns the target T36, 4H2907-AA.
T36 chain: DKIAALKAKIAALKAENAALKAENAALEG
Description: two-hybrid library CCmax. To be noted: mean of both orientations.

Assay [37] concerns the target T37, 4H3056-AA.
T37 chain: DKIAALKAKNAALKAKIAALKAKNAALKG
Description: two-hybrid library CCmax. To be noted: mean of both orientations.

In assay [38] the target is T38, 4H982-AA.
T38 chain: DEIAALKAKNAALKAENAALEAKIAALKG
Description: two-hybrid library CCmax. Particulars: mean of both orientations.

Assay [39] has as its target T39, 4H32-AA.
T39 chain: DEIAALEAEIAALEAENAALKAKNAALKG
Description: two-hybrid library CCmax. Particulars: mean of both orientations.

The target of assay [40] is T40, 4H2553-AA.
T40 chain: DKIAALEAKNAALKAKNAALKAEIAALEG
Description: two-hybrid library CCmax. To be noted: mean of both orientations.

As to DKNQELKKEIEELERENWELEKKIQELKQ [P6bHq], the interaction score in assay [1] is -0.205; in [2], 1; in [3], 1.03; in assay [4] it was 0.113.
Turning to DKNAQLEQEIAELKQKIAELEWENAQLKQ [4H3172-bA], the interaction score is -1.11 in [5]; -0.797 in assay [6]; -0.0855 in assay [7]; -0.244 in [8]; -0.291 in [9]; -0.867 in assay [10]. Further, the interaction score in assay [11] is 0.247; in assay [12] it was 1.36; in assay [13] it was -0.395; in [14], 0.174; in [15] it was -0.273.
With DENAALKAEIAALKAENAALKAKIAALEG [4H1629-AA], the interaction score in [16] is -1.82; in assay [17], -1.58; in assay [18], -1.67; in assay [19], -1.33; in assay [20], -1.39; in [21], -1.46. Also, the interaction score was -1.62 in assay [22]; -1.66 in assay [23]; -0.00053 in assay [24]; -1.7 in assay [25]; -0.752 in assay [26]; -0.212 in assay [27]. For the same molecule, the interaction score in [28] is -1.22; in [29], -1; in assay [30] it was -0.375; in [31], 0.462; in assay [32] it was -1.18; in assay [33], 2.04. Moreover, the interaction score in assay [34] was -0.847; in assay [35], -1.42; in assay [36], -1.89; in assay [37], -1.6; in assay [38] it was -1.55; in [39], -1.13. In addition, the interaction score in assay [40] was -1.61.
